Test results published in patent US20230356187A1.

Key:
[1] = target: purified antibody (KBIO, Korea); assay: 1 ml resin column; purified antibody bound, eluted and measured after 15 cycles of 0.3 M NaOH; reference Capto L
[2] = target: purified antibody (KBIO, Korea); assay: 1 ml resin column; purified antibody bound, eluted and measured after 15 cycles of 0.3 M NaOH (15 min each)

residual activity relative to Cytiva's product (Capto L) [1]: 1.4 times
residual activity (antibody recovered after 15 alkali treatments, relative to the initial binding) [2]: 43.5%
B1: variant protein 4mBF (mBF tetramer) (designed binder)
chain: MPKEEVTIKANLIFADGKTQTAEFKGTFGEATAEAYRYADLLAPENGKYTVDVADKGYTLNIKFAGKEKTPEEMPKEEVTIKANLIFADGKTQTAEFKGTFGEATAEAYRYADLLAPENGKYTVDVADKGYTLNIKFAGKEKTPEEMPKEEVTIKANLIFADGKTQTAEFKGTFGEATAEAYRYADLLAPENGKYTVDVADKGYTLNIKFAGKEKTPEEMPKEEVTIKANLIFADGKTQTAEFKGTFGEATAEAYRYADLLAPENGKYTVDVADKGYTLNIKFAGKEKTPEE
